The values that follow come from the supplement of paper PMC5998384.

Series [1] has as its system HeLa Kyoto. Nature of the series: solubility in G1/S (NP-40 vs SDS abundance) (log2 ratio); higher = more soluble. The conditions noted are these: cell cycle stage: G1/S.
For series [2], the system named is HeLa Kyoto. Nature of the series: melting temperature (median over replicates), in situ; higher = more thermally stable.
For series [3], the system named is HeLa Kyoto. The series is described as follows: solubility change mitosis vs G1/S (difference of NP-40 vs SDS log2 ratios) (log2 ratio difference); higher = more soluble in mitosis.
Series [4] concerns HeLa Kyoto. Nature of the series: thermal stability score vs G1/S (z-score of summed log2 fold changes over temperatures); higher = more thermally stable than in G1/S.
The mark [5] stands for this setting: cell cycle stage: early G1 (4.5 h after nocodazole release).
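Wherever melting temperature (median over replicates), in situ is given: HeLa Kyoto cells synchronized by double thymidine or nocodazole block, proteins quantified by TMT10plex mass spectrometry, three independent biological replicates.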
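Wherever solubility change mitosis vs G1/S (difference of NP-40 vs SDS log2 ratios) is given: synchronized HeLa Kyoto cells (double thymidine block for G1/S, nocodazole release for mitosis), protein amounts in NP-40 versus SDS lysates quantified by mass spectrometry, three biological replicates.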
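Wherever solubility in G1/S (NP-40 vs SDS abundance) is given: HeLa Kyoto cells arrested at G1/S by double thymidine block, proteins quantified by TMT10plex mass spectrometry in mild NP-40 versus SDS extracts, three biological replicates.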
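Wherever thermal stability score vs G1/S (z-score of summed log2 fold changes over temperatures) is given: synchronized HeLa Kyoto cells, proteins quantified by TMT10plex mass spectrometry, three biological replicates, mitosis taken 0.5 h after nocodazole release, G1/S directly after double thymidine block.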

Take “MAMGDDKSFDDEESVDGNRPSSAASAFKVPAPKTSGNPANSARKPGSAGGPKVGGASKEGGAGAVDEDDFIKAFTDVPSIQIYSSRELEETLNKIREILSDDKHDWDQRANALKKIRSLLVAGAAQYDCFFQHLRLLDGALKLSAKDLRSQVVREACITVAHLSTVLGNKFDHGAEAIVPTLFNLVPNSAKVMATSGCAAIRFIIRHTHVPRLIPLITSNCTSKSVPVRRRSFEFLDLLLQEWQTHSLERHAAVLVETIKKGIHDADAEARVEARKTYMGLRNHFPGEAETLYNSLEPSYQKSLQTYLKSSGSVASLPQSDRSSSSSQESLNRPFSSKWSTANPSTVAGRVSAGSSKASSLPGSLQRSRSDIDVNAAAGAKAHHAAGQSVRSGRLGAGALNAGSYASLEDTSDKLDGTASEDGRVRAKLSAPLAGMGNAKADSRGRSRTKMVSQSQPGSRSGSPGRVLTTTALSTVSSGVQRVLVNSASAQKRSKIPRSQGCSREASPSRLSVARSSRIPRPSVSQGCSREASRESSRDTSPVRSFQPLASRHHSRSTGALYAPEVYGASGPGYGISQSSRLSSSVSAMRVLNTGSDVEEAVADALKKPARRRYESYGMHSDDDANSDASSACSERSYSSRNGSIPTYMRQTEDVAEVLNRCASSNWSERKEGLLGLQNLLKNQRTLSRVELKRLCEIFTRMFADPHGKRVFSMFLETLVDFIQVHKDDLQDWLFVLLTQLLKKMGADLLGSVQAKVQKALDVTRESFPNDLQFNILMRFTVDQTQTPSLKVKVAILKYIETLAKQMDPGDFINSSETRLAVSRVITWTTEPKSSDVRKAAQSVLISLFELNTPEFTMLLGALPKTFQDGATKLLHNHLRNTGNGTQSSMGSPLTRPTPRSPANWSSPLTSPTNTSQNTLSPSAFDYDTENMNSEDIYSSLRGVTEAIQNFSFRSQEDMNEPLKRDSKKDDGDSMCGGPGMSDPRAGGDATDSSQTALDNKASLLHSMPTHSSPRSRDYNPYNYSDSISPFNKSALKEAMFDDDADQFPDDLSLDHSDLVAELLKELSNHNERVEERKIALYELMKLTQEESFSVWDEHFKTILLLLLETLGDKEPTIRALALKVLREILRHQPARFKNYAELTVMKTLEAHKDPHKEVVRSAEEAASVLATSISPEQCIKVLCPIIQTADYPINLAAIKMQTKVIERVSKETLNLLLPEIMPGLIQGYDNSESSVRKACVFCLVAVHAVIGDELKPHLSQLTGSKMKLLNLYIKRAQTGSGGADPTTDVSGQS [CLASP2]”: in the series with HeLa Kyoto [1], the “solubility in G1/S (log2)” value was -0.0972. Further, the melting temperature in the series with HeLa Kyoto [2] (cell cycle stage: G1/S) and with HeLa Kyoto [2] (cell cycle stage: mitosis) was 49.7 °C throughout. Also, the “solubility change mitosis (log2)” value in the series on HeLa Kyoto [3] is -0.0766. Moreover, the thermal stability score in the series on HeLa Kyoto [4] (setting [5]) was 0.157; with HeLa Kyoto [4] (cell cycle stage: mitosis), 0.371.

On to “MAMLVLVPGRVMRPLGGQLWRFLPRGLEFWGPAEGTARVLLRQFCARQAEAWRASGRPGYCLGTRPLSTARPPPPWSQKGPGDSTRPSKPGPVSWKSLAITFAIGGALLAGMKHVKKEKAEKLEKERQRHIGKPLLGGPFSLTTHTGERKTDKDYLGQWLLIYFGFTHCPDVCPEELEKMIQVVDEIDSITTLPDLTPLFISIDPERDTKEAIANYVKEFSPKLVGLTGTREEVDQVARAYRVYYSPGPKDEDEDYIVDHTIIMYLIGPDGEFLDYFGQNKRKGEIAASIATHMRPYRKKS [SCO1]”, for which the “solubility in G1/S (log2)” value with HeLa Kyoto [1] was found to be 0.47. Besides, the results for the melting temperature in the series with HeLa Kyoto [2] (cell cycle stage: G1/S) and in the series with HeLa Kyoto [2] (cell cycle stage: mitosis) were 49.8 °C and 51.2 °C, respectively. Further, the “solubility change mitosis (log2)” value in the series with HeLa Kyoto [3] is -0.107. For the same sequence, the results for the thermal stability score with HeLa Kyoto [4] (setting [5]) and in the series on HeLa Kyoto [4] (cell cycle stage: mitosis) were 2.42 and 1.59, respectively.

On to “MANDSGGPGGPSPSERDRQYCELCGKMENLLRCSRCRSSFYCCKEHQRQDWKKHKLVCQGSEGALGHGVGPHQHSGPAPPAAVPPPRAGAREPRKAAARRDNASGDAAKGKVKAKPPADPAAAASPCRAAAGGQGSAVAAEAEPGKEEPPARSSLFQEKANLYPPSNTPGDALSPGGGLRPNGQTKPLPALKLALEYIVPCMNKHGICVVDDFLGKETGQQIGDEVRALHDTGKFTDGQLVSQKSDSSKDIRGDKITWIEGKEPGCETIGLLMSSMDDLIRHCNGKLGSYKINGRTKAMVACYPGNGTGYVRHVDNPNGDGRCVTCIYYLNKDWDAKVSGGILRIFPEGKAQFADIEPKFDRLLFFWSDRRNPHEVQPAYATRYAITVWYFDADERARAKVKYLTGEKGVRVELNKPSDSVGKDVF [EGLN1]”, for which the “solubility in G1/S (log2)” value in the series with HeLa Kyoto [1] was determined as 0.331. In addition, the melting temperature with HeLa Kyoto [2] (cell cycle stage: G1/S) is 49.3 °C; with HeLa Kyoto [2] (cell cycle stage: mitosis), 50.2 °C. Also, the “solubility change mitosis (log2)” value in the series with HeLa Kyoto [3] amounted to 0.0496. For the same sequence, the thermal stability score in the series on HeLa Kyoto [4] (setting [5]) was 2.53; in the series on HeLa Kyoto [4] (cell cycle stage: mitosis) it was 0.714.

As to “MANDSPAKSLVDIDLSSLRDPAGIFELVEVVGNGTYGQVYKGRHVKTGQLAAIKVMDVTEDEEEEIKLEINMLKKYSHHRNIATYYGAFIKKSPPGHDDQLWLVMEFCGAGSITDLVKNTKGNTLKEDWIAYISREILRGLAHLHIHHVIHRDIKGQNVLLTENAEVKLVDFGVSAQLDRTVGRRNTFIGTPYWMAPEVIACDENPDATYDYRSDLWSCGITAIEMAEGAPPLCDMHPMRALFLIPRNPPPRLKSKKWSKKFFSFIEGCLVKNYMQRPSTEQLLKHPFIRDQPNERQVRIQLKDHIDRTRKKRGEKDETEYEYSGSEEEEEEVPEQEGEPSSIVNVPGESTLRRDFLRLQQENKERSEALRRQQLLQEQQLREQEEYKRQLLAERQKRIEQQKEQRRRLEEQQRREREARRQQEREQRRREQEEKRRLEELERRRKEEEERRRAEEEKRRVEREQEYIRRQLEEEQRHLEVLQQQLLQEQAMLLECRWREMEEHRQAERLQRQLQQEQAYLLSLQHDHRRPHPQHSQQPPPPQQERSKPSFHAPEPKAHYEPADRAREVEDRFRKTNHSSPEAQSKQTGRVLEPPVPSRSESFSNGNSESVHPALQRPAEPQVPVRTTSRSPVLSRRDSPLQGSGQQNSQAGQRNSTSIEPRLLWERVEKLVPRPGSGSSSGSSNSGSQPGSHPGSQSGSGERFRVRSSSKSEGSPSQRLENAVKKPEDKKEVFRPLKPADLTALAKELRAVEDVRPPHKVTDYSSSSEESGTTDEEDDDVEQEGADESTSGPEDTRAASSLNLSNGETESVKTMIVHDDVESEPAMTPSKEGTLIVRQTQSASSTLQKHKSSSSFTPFIDPRLLQISPSSGTTVTSVVGFSCDGMRPEAIRQDPTRKGSVVNVNPTNTRPQSDTPEIRKYKKRFNSEILCAALWGVNLLVGTESGLMLLDRSGQGKVYPLINRRRFQQMDVLEGLNVLVTISGKKDKLRVYYLSWLRNKILHNDPEVEKKQGWTTVGDLEGCVHYKVVKYERIKFLVIALKSSVEVYAWAPKPYHKFMAFKSFGELVHKPLLVDLTVEEGQRLKVIYGSCAGFHAVDVDSGSVYDIYLPTHIQCSIKPHAIIILPNTDGMELLVCYEDEGVYVNTYGRITKDVVLQWGEMPTSVAYIRSNQTMGWGEKAIEIRSVETGHLDGVFMHKRAQRLKFLCERNDKVFFASVRSGGSSQVYFMTLGRTSLLSW [MAP4K4]”, the “solubility in G1/S (log2)” value in the series on HeLa Kyoto [1] is -0.155. Also, the melting temperature in the series on HeLa Kyoto [2] (cell cycle stage: G1/S) was 51.7 °C; in the series on HeLa Kyoto [2] (cell cycle stage: mitosis) it was 51.3 °C. For the same sequence, in the series on HeLa Kyoto [3], the “solubility change mitosis (log2)” value is -0.0676. In addition, the thermal stability score in the series with HeLa Kyoto [4] (setting [5]) stood at 0.471; in the series on HeLa Kyoto [4] (cell cycle stage: mitosis) it was 0.408.

With “MANEAYPCPCDIGHRLEYGGLGREVQVEHIKAYVTKSPVDAGKAVIVIQDIFGWQLPNTRYIADMISGNGYTTIVPDFFVGQEPWDPSGDWSIFPEWLKTRNAQKIDREISAILKYLKQQCHAQKIGIVGFCWGGTAVHHLMMKYSEFRAGVSVYGIVKDSEDIYNLKNPTLFIFAENDVVIPLKDVSLLTQKLKEHCKVEYQIKTFSGQTHGFVHRKREDCSPADKPYIDEARRNLIEWLNKYM [CMBL]”, in the series with HeLa Kyoto [1], the “solubility in G1/S (log2)” value was found to be 0.267. Besides, the figures for the melting temperature in the series with HeLa Kyoto [2] (cell cycle stage: G1/S) and with HeLa Kyoto [2] (cell cycle stage: mitosis) were 53.5 °C and 52.8 °C, respectively. In addition, the “solubility change mitosis (log2)” value in the series with HeLa Kyoto [3] is -0.08. Moreover, the thermal stability score in the series on HeLa Kyoto [4] (setting [5]) is -0.107; in the series with HeLa Kyoto [4] (cell cycle stage: mitosis) it was -0.238.
